Data published in patent publication US20190256595A1 (INSTITUT NATIONAL DE LA SANT ET DE LA RECHERCH M DICAL …, published 2019).
Where a chain is given by its changes, count along the chain named.

T1: recombinant soluble CD160-His Tag (human, UniProt O95971 26-160)
T1 construct: also called sCD160; CD160 soluble isoform; not shown: His tag
T1 sequence: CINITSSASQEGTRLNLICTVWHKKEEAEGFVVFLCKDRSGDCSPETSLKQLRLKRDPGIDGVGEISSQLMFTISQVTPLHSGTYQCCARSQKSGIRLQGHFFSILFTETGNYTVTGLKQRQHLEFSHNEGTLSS

T2: CD160-TM isoform (CD160 transmembrane isoform) (human)
T2 chain: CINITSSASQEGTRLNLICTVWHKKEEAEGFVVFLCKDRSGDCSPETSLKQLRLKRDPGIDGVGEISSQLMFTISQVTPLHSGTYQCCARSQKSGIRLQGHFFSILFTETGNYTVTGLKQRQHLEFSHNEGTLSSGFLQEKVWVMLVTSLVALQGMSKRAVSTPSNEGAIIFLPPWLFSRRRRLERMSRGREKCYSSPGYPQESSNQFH

T3: Flag-tagged CD160-TM isoform expressed on HEK cells (human)
T3 construct: In the immunoprecipitation the protein came from a 1% NP40 lysate of these cells; Bands were read as mono-, di- and quadrimeric forms; also called HEK-CD160TM; Flag-tagged CD160TM receptor; not shown: Flag tag
T3 chain: T2 chain

T4: CD160 GPI-anchored isoform expressed on CHO cells (human, UniProt O95971 26-160, GPI anchor at the C terminus end)
T4 construct: also called CHO-CD160-GPI
T4 sequence: T1 sequence

B1: A12 antibody (fully human A12 antibody) (antibody, human IgG1, V domains shown)
VH: EVQLVESGGSLVKPGGSLRLSCAASGFTFSNYSMNWVRQAPGKGLEWISYIYGSSRYISYADFVKGRFTISRDNATNSLYLQMNSLRAEDTAVYYCVRSYYGGMDVWGRGTLVTVSS
VL: QSVLTQPASVSGSPGQSITISCAGTSSDVGGYYGVSWYQQHPGKAPKLMIYYDSYRPSGVSNRFSGSKSGNTASLTISGLQAEDEADYYCSSSTYYSTRVFGGGTKLEK
notes: Fully human aglycosylated antibody selected by phage display on HEK-CD160TM cells; also called hu A12
B2: murine chimeric version of A12 antibody (antibody, V domains shown)
VH: B1 VH
VL: B1 VL
notes: also called muA12; mu A12
B3: B6 antibody (fully human B6 antibody) (antibody, human IgG1, V domains shown)
VH: B1 VH with S33Y, Y50G, S59N
VL: B1 VL with Y33S, G34Y, S93Y
notes: From the same phage display selection as A12

Key:
[1] = molecular target: T1, recombinant soluble CD160-His Tag; experiment: sandwich ELISA: coated antibody, soluble CD160-His, anti-His-HRP
Experimental: FIG. 4: sCD160 is recognized by the antibodies CL1-R2, R&D 6700 and RB312 but not A12. 1 ug per well of antibody was coated overnight on a 96 well maxisorb plate. After saturation with PBS-5%BSA, lOng of recombinant soluble CD160-His Tag were added to each well and incubated 2h at room temperature. After washing, revelation was done with anti-His-HRP then TMB substrate.

[2] = molecular target: T2, CD160-TM isoform (CD160 transmembrane …); experiment: flow cytometry on IL2-activated human PBMC, gated CD3-CD56+ NK cells
Experimental: (§1) CHO and HEK transfected cells were labelled with the anti-CD160-GPI mAb CL1-R2 or BY55, the fully human A12 or B6 antibody or their corresponding isotypic control IgG. […] Cell acquisition was performed on a CytoFlex cytometer and results were analysed with FlowJo software.
For PBMC, CD160 labelling was performed as above. Following washes and addition of normal mouse serum, cells were incubated with a mix of CD8-FITC, CD56-PCS, CD3-APC and CD4-PC7 mAbs. After cell acquisition, analyses were performed to distinguish the CD3⁺CD4⁺ and CD3⁺CD8⁺ T lymphocytes, and the CD3⁻CD56⁺ NK cells within the lymphocytes population.

[3] = molecular target: T3, Flag-tagged CD160-TM isoform expressed …; experiment: flow cytometry on HEK-CD160TM cells
Experimental: as §1
(§2) After selection on HEK-CD160TM cells, A12 and B6 specificity for CD160TM isoform was first verified by flow cytometry on both CD160-GPI and CD160TM expressing transfectants. As shown on FIG. 1, a positive labelling was obtained with A12 and B6 antibodies on HEK-CD160TM cells but not on CHO-CD160-GPI cells. Conversely, the anti-CD160-GPI mAb CL1-R2 or BY55 gave a positive labelling only on CD160-GPI-expressing cells, ruling out the possibility that A12 and B6 negativity was linked to the non-expression of CD160-GPI on CHO transfectants.

[4] = molecular target: T4, CD160 GPI-anchored isoform expressed on …; experiment: flow cytometry on CHO-CD160-GPI cells
Experimental: as §1, §2

[5] = molecular target: T3, Flag-tagged CD160-TM isoform expressed …; experiment: immunoprecipitation from HEK-CD160TM lysate, anti-Flag Western blot, non-reducing
Experimental: FIG. 3: Assessment of A12 specificity by immunoprecipitation. Post-nuclear lysates were prepared from HEK-CD160TM cells and subjected to immunoprecipitation with either mouse (mu IgG) or human (hu Ig) isotypic control IgG, chimeric murine A12 (mu A12) or fully human A12 (hu A12) antibody. […] Arrows indicate CD160TM-related signals.
HEK-CD160TM cells, that express a Flag-tagged version of CD160TM isoform, were lysed in 1% NP40 lysis buffer. Post-nuclear lysates were prepared and subjected to immuno-precipitation with the fully human A12 antibody or mouse chimeric A12. Human and mouse IgG were used as negative controls, respectively. Immune complexes were further collected with protein G Sepharose beads. Following washes, non-reducing sample buffer (devoid of reducing agent) was added and samples were finally heat-denatured. Proteins were separated by SDS-10% PAGE, electrically transferred on a nitrocellulose membrane and subjected to immuno-blotting with and anti-Flag mAb plus HRP-coupled goat anti-mouse IgGs. Revelation was performed by enhanced chemiluminescence and images acquired with an ImageQuant LAS device.

[6] = molecular target: T1, recombinant soluble CD160-His Tag; experiment: sandwich ELISA: coated antibody, soluble CD160-His, anti-His-HRP (data not shown)

| Binder | binding result [1] | binding result [2] | binding result [3] | binding result [4] | binding result [5] | binding result [6] |
| --- | --- | --- | --- | --- | --- | --- |
| B1 | no binding | binds | binds | no binding | – | – |
| B2 | – | – | – | – | binds | – |
| B3 | – | – | binds | no binding | – | no binding |
